Consider 14 molecules from paper PMC6297230, “Structural basis of meiotic telomere attachment to the nuclear envelope by MAJIN-TERB2-TERB1” (Nature Communications, 2018).

“And” between values parts separate entries of the source, which are not always exact repeats. Equal entries are not always repeated.

First the molecules themselves.
B1: TERB1 TRF1-binding domain (amino acids 561–658) (domain or fragment, human, UniProt Q8NA31 561-658, looked up)
chain: TDPFTLCSDIINKEVVSFLATPSCSEMLTYRCSGCIAVEKSLNSRNFSKLLHSCPYQCDRHKVIVEAEDRYKSELRKSLICNKKILLTPRRRQRLSNE
notes: human TERB1, canonical isoform Q8NA31, amino acids 561-658; The discussion prints 568–658 once for TRFB; also called TERB1_(TRFB); TRFB; source: E. coli BL21 (DE3), co-expressed with TRF1 TRFH and/or TERB2, purified (Ni-NTA, amylose, ion exchange, SEC)
B6: TRF homology domain of TRF1 (amino acids 62–268) (domain or fragment, human, UniProt P54274 62-268, looked up)
chain: EDAGLVAEAEAVAAGWMLDFLCLSLCRAFRDGRSEDFRRTRNSAEAIIHGLSSLTACQLRTIYICQFLTRIAAGKTLDAQFENDERITPLESALMIWGSIEKEHDKLHEEIQNLIKIQAIAVCMENGNFKEAEEVFERIFGDPNSHMPFKSKLLMIISQKDTFHSFFQHFSYNHMMEKIKSYVNYVLSEKSSTFLMKAAAKVVESKR
notes: Dimer by SEC-MALS; also called TRF1_(TRFH); source: E. coli BL21 (DE3), purified (Ni-NTA, amylose, ion exchange, SEC; 10% glycerol, room temperature)
B7: TERB2 N-terminal end (amino acids 1–107) (domain or fragment, human, UniProt Q8NHR7 1-107, looked up)
chain: MFQGQRGWFCGSVSQDLRQFWVAEGGTISDPRAADFLFSCDASHPDTLRIYQSLDYIEDNATVFHAYYLSAVANAKIKNSVALGHFILPPACLQKEIRRKIGSFIWE
notes: Forms large aggregates in isolation; source: E. coli BL21 (DE3), co-expressed with TERB1, purified (Ni-NTA, amylose, ion exchange, SEC)

Data set [1] deals with TERB1 TBM (Homo sapiens) (UniProt Q8NA31). Particulars: cited from earlier work.
Data set [2] has as its target GST-TERB1 TBM (Homo sapiens) (UniProt Q8NA31). As to conditions: cited from earlier work.
In data set [3] the target is MAJIN N-terminal structural core (amino acids 1–112) (human). Put plainly: SEC-MALS; purified (co-expressed) samples at > 1 mg/ml on Superdex 200 Increase 10/300 GL in 20 mM Tris pH 8.0, 250 mM KCl, 2 mM DTT.
In data set [4] the target is TRF homology domain of TRF1 (amino acids 62–268) (human) (UniProt P54274). Put plainly: SEC-MALS; relative binding affinities estimated from dissociation of TRF1 TRFH–TERB1 complexes upon serial dilution (Supplementary Fig. 13a–d).
The target of data set [5] is MAJIN core, truncated (amino acids 1–106) (human). Briefly: SEC-MALS; purified (co-expressed) samples at > 1 mg/ml on Superdex 200 Increase 10/300 GL in 20 mM Tris pH 8.0, 250 mM KCl, 2 mM DTT. On the technique in general: In gel filtration, larger molecules generally elute earlier.
Data set [6] has as its target B6. The description is as above. Particulars: both partners purified.
In data set [7] the target is T1, His6–TRF1_(TRFH) (human, UniProt P54274 62-268).
T1 construct: source: E. coli BL21 (DE3), co-purified with MBP–TERB1 fusions
T1 sequence (looked up): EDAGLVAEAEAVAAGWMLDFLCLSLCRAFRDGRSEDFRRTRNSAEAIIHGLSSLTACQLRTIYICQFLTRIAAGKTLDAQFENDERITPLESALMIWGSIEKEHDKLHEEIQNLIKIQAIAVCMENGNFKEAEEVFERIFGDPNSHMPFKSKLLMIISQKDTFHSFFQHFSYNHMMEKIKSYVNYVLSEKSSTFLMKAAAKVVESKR
Put plainly: SEC-MALS; co-purified His6–TRF1 TRFH complexes with MBP–TERB1 TRFB (9 µM) or MBP–TERB1 TBM (130 µM) incubated with 9 µM phosphorylated CDK1-CyclinB in 40 mM Tris pH 7.5, 250 mM KCl, 20 mM MgCl2, 2 mM ATP, 10 mM DTT, 10 min at 30 °C and 50 min at 22 °C; also SDS–PAGE with ProQ-Diamond. Particulars: both partners purified.

Data set [8] addresses B6. Briefly: SEC-MALS; relative binding affinities estimated from dissociation of TRF1 TRFH–TERB1 complexes upon serial dilution (Supplementary Fig. 13a–d). Particulars: both partners purified.
Data set [9] concerns the target MAJIN N-terminal structural core (amino acids 1–112) (human). Put plainly: SEC-MALS; purified (co-expressed) samples at > 1 mg/ml on Superdex 200 Increase 10/300 GL in 20 mM Tris pH 8.0, 250 mM KCl, 2 mM DTT. The source holds these as a separate data set.
Target sequence in this assay (Q3KP22 1-112): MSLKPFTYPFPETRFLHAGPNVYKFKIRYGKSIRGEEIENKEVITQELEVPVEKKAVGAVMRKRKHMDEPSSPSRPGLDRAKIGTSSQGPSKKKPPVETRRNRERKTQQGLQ
Data set [10] addresses T2, full length TERB2 (1–220) (human, UniProt Q8NHR7 1-220).
T2 construct: human TERB2, canonical isoform Q8NHR7, full length, amino acids 1-220; source: E. coli BL21 (DE3), co-expressed with MAJIN and TERB1, purified (Ni-NTA, amylose, ion exchange, SEC)
T2 sequence (looked up): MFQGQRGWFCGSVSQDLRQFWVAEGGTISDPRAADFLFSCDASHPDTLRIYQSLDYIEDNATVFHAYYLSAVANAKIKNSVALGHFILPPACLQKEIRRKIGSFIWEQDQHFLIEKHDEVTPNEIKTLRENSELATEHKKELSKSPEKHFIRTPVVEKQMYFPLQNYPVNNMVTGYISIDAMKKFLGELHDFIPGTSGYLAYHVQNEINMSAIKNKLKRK
The description is as above. As to conditions: both partners purified.

Data set [11] concerns the target B7. The description is as above. As to conditions: both partners purified.
For data set [12], the target named is MAJIN_(Core+BP1)-TERB2–TERB1_(TRFB) complex (1–147, 1–220, 561–658) (human) (UniProt Q8NHR7). Put plainly: SEC-MALS; complex reconstituted by adding TRF1 TRFH to purified MAJIN–TERB2–TERB1(TRFB) (Supplementary Fig. 12c). As to conditions: scale: TRF1 TRFH chains per 2:2:2 MAJIN–TERB2–TERB1 complex.
Data set [13] deals with the molecule itself. Briefly: SEC-MALS; purified (co-expressed) samples at > 1 mg/ml on Superdex 200 Increase 10/300 GL in 20 mM Tris pH 8.0, 250 mM KCl, 2 mM DTT.
The target of data set [14] is B1. The data set is described as above. Particulars: both partners purified.
Data set [15] addresses MAJIN core, truncated (amino acids 1–106) (human). The data set is described as above. This is another data set of the same source.
Data set [16] deals with TRF1 full length (human, UniProt P54274 1-439). Briefly: EMSA; apparent, Hill fit; EMSA: 20 mM Tris pH 8.0, 250 mM KCl, 1 h at 4 °C, 3% glycerol, 0.5% agarose in 0.5x TBE; 25 nM FAM-DNA for Kd (protein as oligomer), 0.3 uM DNA for display. Particulars: protein: recombinant; tags: tag removed (TEV); chain copies: 2; label: 5' 6-FAM; blunt. On the technique in general: A gel shift assay detects complexes by their altered migration in electrophoresis.
Sequence of TRF1 full length (P54274 whole entry): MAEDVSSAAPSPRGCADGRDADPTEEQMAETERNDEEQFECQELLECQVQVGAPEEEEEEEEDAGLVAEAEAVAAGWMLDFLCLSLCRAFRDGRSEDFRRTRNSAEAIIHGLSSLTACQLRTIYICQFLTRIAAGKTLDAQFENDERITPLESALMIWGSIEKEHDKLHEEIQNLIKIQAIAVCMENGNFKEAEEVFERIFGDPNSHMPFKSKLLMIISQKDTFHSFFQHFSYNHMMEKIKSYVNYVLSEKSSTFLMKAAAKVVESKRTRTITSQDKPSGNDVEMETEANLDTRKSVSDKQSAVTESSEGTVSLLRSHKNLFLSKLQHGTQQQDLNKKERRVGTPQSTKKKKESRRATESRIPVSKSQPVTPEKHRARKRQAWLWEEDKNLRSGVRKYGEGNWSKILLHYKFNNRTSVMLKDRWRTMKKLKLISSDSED

Data set [17] deals with MAJIN core (amino acids 1–112) F73E Y75E (human). Briefly: SEC-MALS; purified (co-expressed) samples at > 1 mg/ml on Superdex 200 Increase 10/300 GL in 20 mM Tris pH 8.0, 250 mM KCl, 2 mM DTT.
The target in data set [18] is MAJIN core (amino acids 1–112) K24M K26E R28E K31D R34E R81D (human). Described as above.

In the case of TRF1 TRFH (from UniProt P54274), the Kd was 5600 nM in data set [1] and 75 nM in data set [2]. In [3], “MAJIN N-terminal structural core (amino acids 1–112) (domain or fragment)” showed a stoichiometry N (MAJIN chains in the 2:2:2 complex) of 2 and a stoichiometry N (MAJIN chains in the 2:2 complex) of 2.

On to “TERB1TBM (amino acids 642–658) (from UniProt Q8NA31 642-658) (peptide)”, for which the fold weaker binding than TERB1 TRFB in data set [4] was greater than 100 fold. In turn, “MAJIN core, truncated (amino acids 1–106) (domain or fragment)” had a stoichiometry N (MAJIN chains in the 2:2 complex) in data set [5] of 2. In the case of B1, in data set [6], the stoichiometry N (in general, the number of molecules, sites or subunits per partner or assembly) was 0.5 binder chains per target chain (2:1 TRF1:TERB1) and 0.5 binder chains per target chain (2:1:1 TRF1:TERB1:TERB2).

B2: MBP–TERB1_(TRFB) partially phosphorylated by CDK1-CyclinB (domain or fragment, human, UniProt Q8NA31 561-658, looked up)
chain: TDPFTLCSDIINKEVVSFLATPSCSEMLTYRCSGCIAVEKSLNSRNFSKLLHSCPYQCDRHKVIVEAEDRYKSELRKSLICNKKILLTPRRRQRLSNE
modifications: only partially phosphorylated by CDK1-CyclinB (residue not named for this experiment)
notes: human TERB1, canonical isoform Q8NA31, amino acids 561-658; source: E. coli BL21 (DE3), co-purified with His6–TRF1 TRFH, then incubated with phosphorylated CDK1-CyclinB and ATP
As to B2, the “stoichiometry N” value in data set [7] is 0.5 binder chains per target chain (2:1 TRF1:TERB1).

B3: TERB1 TRF1-binding domain (amino acids 561–658) T648E (domain or fragment, human, UniProt Q8NA31 561-658, looked up)
chain: TDPFTLCSDIINKEVVSFLATPSCSEMLTYRCSGCIAVEKSLNSRNFSKLLHSCPYQCDRHKVIVEAEDRYKSELRKSLICNKKILLEPRRRQRLSNE
notes: human TERB1, canonical isoform Q8NA31, amino acids 561-658, phosphomimetic T648E; it may be an MBP fusion as in the phosphorylation assays; also called TERB1_(TRFB) T648E; source: E. coli BL21 (DE3), purified
B3: the “fold higher affinity than wild-type TERB1 TBM” value in data set [8] was no less than 10 fold.

B4: full length TERB2 (1–220) (natural protein)
chain: MFQGQRGWFCGSVSQDLRQFWVAEGGTISDPRAADFLFSCDASHPDTLRIYQSLDYIEDNATVFHAYYLSAVANAKIKNSVALGHFILPPACLQKEIRRKIGSFIWEQDQHFLIEKHDEVTPNEIKTLRENSELATEHKKELSKSPEKHFIRTPVVEKQMYFPLQNYPVNNMVTGYISIDAMKKFLGELHDFIPGTSGYLAYHVQNEINMSAIKNKLKRK
B4 registered a stoichiometry N (binder chains per target chain (2:2:2)) in [9] of 1.

B5: TERB1 TERB2-binding site (amino acids 585–642) (domain or fragment, human, UniProt Q8NA31 585-642, looked up)
chain: SEMLTYRCSGCIAVEKSLNSRNFSKLLHSCPYQCDRHKVIVEAEDRYKSELRKSLICN
notes: human TERB1, canonical isoform Q8NA31, amino acids 585-642; Forms large aggregates in isolation; also called TERB1T2B; T2B; source: E. coli BL21 (DE3), co-expressed with TERB2, purified (Ni-NTA, amylose, ion exchange, SEC)
As to B5, the entries for the “stoichiometry N” value in data set [10] and in data set [11] were 1 binder chains per target chain (2:2:2) and 1 binder chains per target chain (1:1), respectively. With B6, the figures for the stoichiometry N in [12] and in data set [13] were 4 and 2 chains in the oligomer, respectively. B7: the “stoichiometry N” value in data set [14] was 1 binder chains per target chain (2:1:1 TRF1:TERB1:TERB2).

Molecule PVNNMVTGYISIDAMKKFLGELHDFIPGTSGYLAYHVQNE (domain or fragment) [TERB2 C-terminus, truncated (amino acids 168–207)] had a stoichiometry N (binder chains per target chain (2:2)) in data set [15] of 1.

B8: FAM random dsDNA (145 bp) (dsDNA)
DNA 1: TTCCAGGGTTCCATGGAGATAAAGGTCAATAAATTAGAGTTAGAACTAGAAAGTGCCAAACAGAAATTTGGAGAAATCACAGACACCTATCAGAAAGAAATTGAGGACAAAAAGATATCAGAATAATAACCATGGATATCGAATT
DNA 2: AATTCGATATCCATGGTTATTATTCTGATATCTTTTTGTCCTCAATTTCTTTCTGATAGGTGTCTGTGATTTCTCCAAATTTCTGTTTGGCACTTTCTAGTTCTAACTCTAATTTATTGACCTTTATCTCCATGGAACCCTGGAA
As for B8, the Kd in data set [16] came to 100 nM.

B9: TERB2 C-terminus (amino acids 168–220) (domain or fragment)
chain: PVNNMVTGYISIDAMKKFLGELHDFIPGTSGYLAYHVQNEINMSAIKNKLKRK
B9 registered a stoichiometry N (binder chains per target chain (2:2)) in data set [9] of 1. Besides, the stoichiometry N (binder chains per target chain (1:1)) in data set [17] and in [18] was 1 in each case.
